Laboratory results from patent US20180030151A1 (MOGAM INSTITUTE FOR BIOMEDICAL RESEARCH, published 2018).
Where two headings read alike, the source gives them in different places.

Legend:
Assay in all cases: cell-based or functional assay
[1] = biological target: T1, recombinant human TFPI (tissue factor pathway inhibitor) (human, UniProt P10646 29-304)
[2] = biological target: T1, recombinant human TFPI (tissue factor …); remark: listed apart in the source
[3] = biological target: T1, recombinant human TFPI (tissue factor …); remark: listed apart in the source
[4] = biological target: T1, recombinant human TFPI (tissue factor …); remark: listed apart in the source
[5] = biological target: T1, recombinant human TFPI (tissue factor …); remark: listed apart in the source
[6] = biological target: T1, recombinant human TFPI (tissue factor …); remark: listed apart in the source
[7] = biological target: T1, recombinant human TFPI (tissue factor …); remark: listed apart in the source

B1: clone 3203 (antibody, V domains shown)
VH: EVQLVESGGGLVKPGGSLRLSCAASGFTFSSYAMSWVRQAPGKGLEWVSTITTGGSYTYYADSVEGRFTISRDNAKNSLYLQMNSLRAEDTAVYYCARQDGNFLMDYWGQGTLVTVSS
VL: DVVMTQTPLSLPVTLGQPASISCKSSQSLLDLDGKTYLNWLQQRPGQSPKRLIYLVSKLDSGVPDRFTGSGSGTDFTLKISRVEAEDVGVYYCWQGTHFPFTFGQGTKVEIKR
FXa assay % of FXa alone, 2.5 nM Ab, 10 nM TFPI [1]: 6.2%
FXa assay % of FXa alone, 5 nM Ab, 10 nM TFPI [1]: 13.5%
FXa assay % of FXa alone, 10 nM Ab, 10 nM TFPI [1]: 48.5%
FXa assay % of FXa alone, 20 nM Ab, 10 nM TFPI [1]: 68%
FXa assay OD, 2.5 nM Ab, 10 nM TFPI [1]: 0.0505
FXa assay OD, 5 nM Ab, 10 nM TFPI [1]: 0.11
FXa assay OD, 10 nM Ab, 10 nM TFPI [1]: 0.394
FXa assay OD, 20 nM Ab, 10 nM TFPI [1]: 0.552
% of Normalized, TF/FVIIa/FX complex assay, Ab 1.56 nM [2]: 16.1%
% of Normalized, TF/FVIIa/FX complex assay, Ab 3.13 nM [2]: 17.7%
% of Normalized, TF/FVIIa/FX complex assay, Ab 6.25 nM [2]: 18.9%
% of Normalized, TF/FVIIa/FX complex assay, Ab 12.5 nM [2]: 22.7%
% of Normalized, TF/FVIIa/FX complex assay, Ab 25 nM [2]: 46.3%
% of Normalized, TF/FVIIa/FX complex assay, Ab 50 nM [2]: 102%
% of Normalized, TF/FVIIa/FX complex assay, Ab 100 nM [2]: 102%
A405, TF/FVIIa/FX complex assay, Ab 1.56 nM [3]: 0.147
A405, TF/FVIIa/FX complex assay, Ab 3.13 nM [3]: 0.162
A405, TF/FVIIa/FX complex assay, Ab 6.25 nM [3]: 0.173
A405, TF/FVIIa/FX complex assay, Ab 12.5 nM [3]: 0.208
A405, TF/FVIIa/FX complex assay, Ab 25 nM [3]: 0.424
A405, TF/FVIIa/FX complex assay, Ab 50 nM [3]: 0.934
A405, TF/FVIIa/FX complex assay, Ab 100 nM [3]: 0.932

B2: clone A67 (antibody, V domains shown)
VH: EVQLVESGGGLVKPGGSLRLSCAASGFTFSSYAMNWVRQAPGKGLEWVSTITTGGSYTYYADSVEGRFTISRDNAKNSLYLQMNSLRAEDTAVYYCARQDGNFLMDYWGQGTLVTVSS
VL: DVVMTQTPLSLPVTLGQPASISCKSSQSLLDLDGKTYLNWLQQRPGQSPKRLIYLVSKLDSGVPDRFTGSGSGTDFTLKISRVEAEDVGVYYCWQGTHFPFTFGQGTKVEIKR
% of Normalized, TF/FVIIa/FX complex assay, Ab 1.56 nM [4]: 16.1%
% of Normalized, TF/FVIIa/FX complex assay, Ab 3.13 nM [4]: 18.5%
% of Normalized, TF/FVIIa/FX complex assay, Ab 6.25 nM [4]: 20.5%
% of Normalized, TF/FVIIa/FX complex assay, Ab 12.5 nM [4]: 30.3%
% of Normalized, TF/FVIIa/FX complex assay, Ab 25 nM [4]: 95.8%
% of Normalized, TF/FVIIa/FX complex assay, Ab 50 nM [4]: 93.7%
% of Normalized, TF/FVIIa/FX complex assay, Ab 100 nM [4]: 95%
FXa assay % of FXa alone, 2.5 nM Ab, 10 nM TFPI [1]: 8%
FXa assay % of FXa alone, 5 nM Ab, 10 nM TFPI [1]: 28.8%
FXa assay % of FXa alone, 10 nM Ab, 10 nM TFPI [1]: 63.5%
FXa assay % of FXa alone, 20 nM Ab, 10 nM TFPI [1]: 75.8%
FXa assay OD, 2.5 nM Ab, 10 nM TFPI [1]: 0.065
FXa assay OD, 5 nM Ab, 10 nM TFPI [1]: 0.234
FXa assay OD, 10 nM Ab, 10 nM TFPI [1]: 0.516
FXa assay OD, 20 nM Ab, 10 nM TFPI [1]: 0.616
% of Normalized, TF/FVIIa/FX complex assay, Ab 1.56 nM [2]: 16.3%
% of Normalized, TF/FVIIa/FX complex assay, Ab 3.13 nM [2]: 18.7%
% of Normalized, TF/FVIIa/FX complex assay, Ab 6.25 nM [2]: 21.3%
% of Normalized, TF/FVIIa/FX complex assay, Ab 12.5 nM [2]: 36.1%
% of Normalized, TF/FVIIa/FX complex assay, Ab 25 nM [2]: 99.2%
% of Normalized, TF/FVIIa/FX complex assay, Ab 50 nM [2]: 102%
% of Normalized, TF/FVIIa/FX complex assay, Ab 100 nM [2]: 104%
FXa assay % of FXa alone, 2.5 nM Ab, 10 nM TFPI [5]: 9.2%
FXa assay % of FXa alone, 5 nM Ab, 10 nM TFPI [5]: 41.9%
FXa assay OD, 2.5 nM Ab, 10 nM TFPI [5]: 0.0745
FXa assay OD, 5 nM Ab, 10 nM TFPI [5]: 0.338
FXa assay OD, 10 nM Ab, 10 nM TFPI [5]: 0.543
FXa assay OD, 20 nM Ab, 10 nM TFPI [5]: 0.637
A405, TF/FVIIa/FX complex assay, Ab 1.56 nM [3]: 0.149
A405, TF/FVIIa/FX complex assay, Ab 3.13 nM [3]: 0.172
A405, TF/FVIIa/FX complex assay, Ab 6.25 nM [3]: 0.195
A405, TF/FVIIa/FX complex assay, Ab 12.5 nM [3]: 0.33
A405, TF/FVIIa/FX complex assay, Ab 25 nM [3]: 0.908
A405, TF/FVIIa/FX complex assay, Ab 50 nM [3]: 0.938
A405, TF/FVIIa/FX complex assay, Ab 100 nM [3]: 0.947
effect of inhibiting TFPI, FXa activity assay, Ab 10 nM [6]: ~67%
effect of inhibiting TFPI, FXa activity assay, Ab 20 nM [6]: ~79%
A405, TF/FVIIa/FX complex assay, Ab 1.56 nM [7]: 0.154
A405, TF/FVIIa/FX complex assay, Ab 3.13 nM [7]: 0.177
A405, TF/FVIIa/FX complex assay, Ab 6.25 nM [7]: 0.196
A405, TF/FVIIa/FX complex assay, Ab 12.5 nM [7]: 0.29
A405, TF/FVIIa/FX complex assay, Ab 25 nM [7]: 0.914
A405, TF/FVIIa/FX complex assay, Ab 50 nM [7]: 0.895
A405, TF/FVIIa/FX complex assay, Ab 100 nM [7]: 0.907
